Measured values taken from patent US20230074793A1.

Molecular target: CTLA4 (cytotoxic T-lymphocyte-associated protein 4) (human) (UniProt P16410)
Experiment: cell-based or functional assay

Sequence of CTLA4 (cytotoxic T-lymphocyte-associated protein 4) (human) (P16410 36-223): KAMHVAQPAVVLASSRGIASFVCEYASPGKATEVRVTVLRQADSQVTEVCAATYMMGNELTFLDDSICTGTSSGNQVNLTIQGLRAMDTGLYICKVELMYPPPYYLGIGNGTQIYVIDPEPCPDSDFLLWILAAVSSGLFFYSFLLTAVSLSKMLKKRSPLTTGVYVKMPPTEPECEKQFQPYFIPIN

Substance: XmAb®20717 (bispecific antibody)
- IL-2 secretion (ELISA of culture supernatants) from SEB-stimulated human PBMC treated 24 hours, versus anti-RSV isotype-control bivalent antibody XENP15074: 4.1 fold
- IL-2 secretion (ELISA) from SEB-stimulated human PBMC, versus a mixture of the monovalent component antibodies XENP20111 (anti-PD1 scFv-Fc) and XENP20059 (anti-CTLA4 Fab-Fc): 1.6 fold
- IL-2 secretion (ELISA) from SEB-stimulated human PBMC, versus the bivalent anti-PD1 antibody XENP16432: 1.5 fold
